Test results: paper PMC11889166

Key:
[1] = target: EYFP-CD74minRTS (pEYFP-C1-CD74minRTS) (human) (UniProt P04233); experiment: FRET or BRET; FLIM-FRET (TCSPC, two-photon microscope, FALCON) in fixed HEK293 cells co-transfected with ECFP-CXCR4 (donor) and EYFP-CD74 (acceptor)
[2] = target: EYFP-CD74minRTS (pEYFP-C1-CD74minRTS) (human) (UniProt P04233); experiment: FRET or BRET; FLIM-FRET in live HEK293 cells co-transfected with ECFP-CXCR4 and EYFP-CD74, monitored at one-minute intervals during exposure to MIF-2 (4 nM, 10 min, 37 °C); MIF (8 nM) as comparison reduced the lifetime to a lesser extent
[3] = target: EYFP-CD74minRTS (pEYFP-C1-CD74minRTS) (human) (UniProt P04233); experiment: FRET or BRET; FLIM-FRET (TCSPC, two-photon microscope, FALCON) in fixed Huh-7 cells co-transfected with ECFP-CXCR4 (donor) and EYFP-CD74 (acceptor); donor-alone lifetime 2.52 ns used; also with MIF-2 stimulation before fixation (FRET efficiency increased)

Chain of UniProt P04233 (P04233 whole entry): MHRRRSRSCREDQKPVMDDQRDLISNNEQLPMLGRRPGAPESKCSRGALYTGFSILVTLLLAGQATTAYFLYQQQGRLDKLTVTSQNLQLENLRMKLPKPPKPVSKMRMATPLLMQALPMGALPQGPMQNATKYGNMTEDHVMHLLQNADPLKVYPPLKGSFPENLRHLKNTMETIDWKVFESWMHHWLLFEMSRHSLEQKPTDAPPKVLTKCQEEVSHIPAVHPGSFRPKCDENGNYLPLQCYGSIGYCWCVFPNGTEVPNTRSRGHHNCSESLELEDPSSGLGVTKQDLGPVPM

FRET efficiency [1]: 50%
fluorescence lifetime of the donor ECFP-CXCR4 with the acceptor, after MIF-2 stimulation [2]: 2 ns
FRET efficiency [3]: 17 to 20%
Substance: ECFP-tagged CXCR4 (pECFP-N1-CXCR4) (from UniProt P61073 1-352) (receptor)
